Measured values taken from article PMC7980517.

Legend:
Assay in all cases: EMSA
nsp8ΔN = nsp8ΔN (SARS-CoV-2, UniProt P0DTD1 4019-4140)
nsp7 = nsp7 (SARS-CoV-2, UniProt P0DTD1 3860-3942)
nsp7;nsp8ΔN = nsp7;nsp8ΔN (SARS-CoV-2;SARS-CoV-2, UniProt P0DTD1;P0DTD1 3860-3942;4019-4140, |)
nsp7;nsp8 = nsp7;nsp8 (SARS-CoV-2;SARS-CoV-2, UniProt P0DTD1;P0DTD1 3860-3942;3943-4140, |)
nsp8 = nsp8 (SARS-CoV-2, UniProt P0DTD1 3943-4140)

B1: 12-mer ssRNA (FAM, EMSA) (ssRNA)
RNA: GCUUUGAUUUCG
nsp8ΔN
  binding result: no binding
nsp7
  binding result: no binding
nsp7;nsp8ΔN
  binding result: no binding
nsp7;nsp8
  binding result: binds
nsp8
  binding result: binds
